Paper doi:10.1101/2024.09.02.610668 (bioRxiv, 2024)

Molecular target: G. gallus FANCD2 (G. gallus, UniProt Q68Y81 1-1439)
Assay: cross-linking

Chain of G. gallus FANCD2 (Q68Y81 whole entry): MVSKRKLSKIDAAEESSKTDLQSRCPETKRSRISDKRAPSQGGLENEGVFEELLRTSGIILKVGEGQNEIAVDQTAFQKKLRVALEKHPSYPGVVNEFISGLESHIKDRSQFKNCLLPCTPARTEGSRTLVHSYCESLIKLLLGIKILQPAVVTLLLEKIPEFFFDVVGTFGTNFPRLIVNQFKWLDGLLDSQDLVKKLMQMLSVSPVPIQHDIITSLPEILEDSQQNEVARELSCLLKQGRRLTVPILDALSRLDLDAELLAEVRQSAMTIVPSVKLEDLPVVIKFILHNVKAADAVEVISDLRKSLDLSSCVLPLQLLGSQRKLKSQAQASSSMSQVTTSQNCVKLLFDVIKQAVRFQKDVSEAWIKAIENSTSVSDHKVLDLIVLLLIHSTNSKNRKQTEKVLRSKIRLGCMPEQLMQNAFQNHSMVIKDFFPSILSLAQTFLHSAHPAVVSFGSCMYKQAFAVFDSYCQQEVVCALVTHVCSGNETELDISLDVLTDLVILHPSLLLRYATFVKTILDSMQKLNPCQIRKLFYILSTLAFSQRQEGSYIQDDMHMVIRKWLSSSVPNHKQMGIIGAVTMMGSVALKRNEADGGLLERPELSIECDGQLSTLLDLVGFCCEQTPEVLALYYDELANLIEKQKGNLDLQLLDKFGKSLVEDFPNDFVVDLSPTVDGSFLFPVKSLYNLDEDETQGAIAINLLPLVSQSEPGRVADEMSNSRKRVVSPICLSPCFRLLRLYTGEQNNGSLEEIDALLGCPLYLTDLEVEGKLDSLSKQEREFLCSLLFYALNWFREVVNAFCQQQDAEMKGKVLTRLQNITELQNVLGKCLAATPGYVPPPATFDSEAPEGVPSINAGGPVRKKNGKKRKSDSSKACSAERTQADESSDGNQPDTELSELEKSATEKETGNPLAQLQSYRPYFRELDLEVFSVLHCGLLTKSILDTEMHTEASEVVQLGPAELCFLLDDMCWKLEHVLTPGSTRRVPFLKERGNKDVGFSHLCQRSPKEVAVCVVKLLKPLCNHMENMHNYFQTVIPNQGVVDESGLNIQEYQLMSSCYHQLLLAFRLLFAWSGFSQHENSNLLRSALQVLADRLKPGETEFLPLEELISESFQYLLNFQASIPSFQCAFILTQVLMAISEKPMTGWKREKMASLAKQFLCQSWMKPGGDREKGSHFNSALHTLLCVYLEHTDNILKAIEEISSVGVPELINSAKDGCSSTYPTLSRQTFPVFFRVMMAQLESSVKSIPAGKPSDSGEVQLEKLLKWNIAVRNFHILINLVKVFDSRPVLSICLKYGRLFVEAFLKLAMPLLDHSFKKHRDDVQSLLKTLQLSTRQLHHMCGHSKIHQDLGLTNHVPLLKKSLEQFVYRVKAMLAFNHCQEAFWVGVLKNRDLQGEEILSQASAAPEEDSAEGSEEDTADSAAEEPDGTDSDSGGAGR

Row | binding result | Binder
1 | binds | G. gallus FANCI, wild type (natural protein, UniProt B0I564 1-1338, looked up) MAQRILQLAAEGSPERLQEALQGLTEGELGDMVTRQALRGRETAALLKGIFKGSPCSQQSGVLRRLQVYKHCVSLVESGDLHVGKVSEIIGLLMLEARQLPGHALAELATLFVEVIKRGSLSNGKSLELFSTVLTALSNSKESLAYGKGELNGEEFKKQLINTLCSSKWDPQCVIHLANMFRDIPLSGEELQFVVEKVLRMFSKLDLQEIPPLVYQLLLLSAKGSKKTVLEGIISFFNQLDKRQKEEQRVPQSADLEVATVPLDQLRHVEGTVILHIVSAINLDQDIGEELIKHLKTEQQKDPGKALCPFSVSLLLSTAVKHRLQEQIFDFLKTSITRSCKDLQILQASKFLQDLCPQQYDVTAVILEVVKNSAFGWDHVTQGLVDLGFSLMESYEPKKSFGGKAAETNLGLSKMPAQQACKLGASILLETFKVHEPIRSDILEQVLNRVLTKAASPVSHFIDLLSNIVVSAPLVLQNSSSRVTETFDNLSFLPIDTVQGLLRAVQPLLKVSMSVRDSLILVLQKAIFSRQLDARKAAVAGFLLLLRNFKILGSLTSSQCSQAIGATQVQADVHACYNSAANEAFCLEILGSLRRCLSQQADVRLMLYEGFYDVLRRNSQLASSIMETLLSQIKQYYLPQQDLLPPLKLEGCIMAQGDQIFLQEPLAHLLCCIQHCLAWYKSTVHLCKGAEDEEEEEDVGFEQNFEEMLESVTRRMIKSELEDFELDKSADFSPSSGVGVKNNIYAIQVMGICEVLIEYNFKIGNFSKNKFEDVLGLFTCYNKLSEILKEKAGKNKSTLGNRIARSFLSMGFVSTLLTALFRDNAQSHEESLAVLRSSTEFMRYAVSVALQKVQQLEEMGQTDGPDGQNPEKMFQNLCKITRVLLWRYTSIPTAVEESGKKKGKSISLLCLEGLLRIFNTMQQLYAARIPQFLQALDITDGDAEEADINVTEKAAFQIRQFQRSLVNQLSSAEDDFNSKETQLLITILSTLSKLLDPGSQQFLQFLTWTVKICKENALEDLSCCKGLLTLLFSLHVLYKSPVSLLRELAQDIHACLGDIDQDVEIESRSHFAIVNVKTAAPTVCLLVLGQADKVLEEVDWLIKRLTILGSDTSEDSTQASNQTQALEKGVILQLGTLLTVFHELVQTALPAGSCVDSLLRSLSKTYAILTSLIKHYIQACRSTSNTVPGRLEKLVKLSGSHLTPQCYSFITYVQNIHSESLSFAEEKKKKKKEDETAVVSTVMAKVLRDTKPIPNLIFAIEQYEKFLIHLSKKSKVNLMQYMKLSTSRDFRINASMLDSVLQEQNTEDAENEPDNNQSGTAEQPDENQEPQKKRRRKK
2 | binds | G. gallus FANCI, phosphomimetic S558D, S561D, T567D (natural protein, UniProt B0I564 1-1338, looked up) MAQRILQLAAEGSPERLQEALQGLTEGELGDMVTRQALRGRETAALLKGIFKGSPCSQQSGVLRRLQVYKHCVSLVESGDLHVGKVSEIIGLLMLEARQLPGHALAELATLFVEVIKRGSLSNGKSLELFSTVLTALSNSKESLAYGKGELNGEEFKKQLINTLCSSKWDPQCVIHLANMFRDIPLSGEELQFVVEKVLRMFSKLDLQEIPPLVYQLLLLSAKGSKKTVLEGIISFFNQLDKRQKEEQRVPQSADLEVATVPLDQLRHVEGTVILHIVSAINLDQDIGEELIKHLKTEQQKDPGKALCPFSVSLLLSTAVKHRLQEQIFDFLKTSITRSCKDLQILQASKFLQDLCPQQYDVTAVILEVVKNSAFGWDHVTQGLVDLGFSLMESYEPKKSFGGKAAETNLGLSKMPAQQACKLGASILLETFKVHEPIRSDILEQVLNRVLTKAASPVSHFIDLLSNIVVSAPLVLQNSSSRVTETFDNLSFLPIDTVQGLLRAVQPLLKVSMSVRDSLILVLQKAIFSRQLDARKAAVAGFLLLLRNFKILGSLTSDQCDQAIGADQVQADVHACYNSAANEAFCLEILGSLRRCLSQQADVRLMLYEGFYDVLRRNSQLASSIMETLLSQIKQYYLPQQDLLPPLKLEGCIMAQGDQIFLQEPLAHLLCCIQHCLAWYKSTVHLCKGAEDEEEEEDVGFEQNFEEMLESVTRRMIKSELEDFELDKSADFSPSSGVGVKNNIYAIQVMGICEVLIEYNFKIGNFSKNKFEDVLGLFTCYNKLSEILKEKAGKNKSTLGNRIARSFLSMGFVSTLLTALFRDNAQSHEESLAVLRSSTEFMRYAVSVALQKVQQLEEMGQTDGPDGQNPEKMFQNLCKITRVLLWRYTSIPTAVEESGKKKGKSISLLCLEGLLRIFNTMQQLYAARIPQFLQALDITDGDAEEADINVTEKAAFQIRQFQRSLVNQLSSAEDDFNSKETQLLITILSTLSKLLDPGSQQFLQFLTWTVKICKENALEDLSCCKGLLTLLFSLHVLYKSPVSLLRELAQDIHACLGDIDQDVEIESRSHFAIVNVKTAAPTVCLLVLGQADKVLEEVDWLIKRLTILGSDTSEDSTQASNQTQALEKGVILQLGTLLTVFHELVQTALPAGSCVDSLLRSLSKTYAILTSLIKHYIQACRSTSNTVPGRLEKLVKLSGSHLTPQCYSFITYVQNIHSESLSFAEEKKKKKKEDETAVVSTVMAKVLRDTKPIPNLIFAIEQYEKFLIHLSKKSKVNLMQYMKLSTSRDFRINASMLDSVLQEQNTEDAENEPDNNQSGTAEQPDENQEPQKKRRRKK
